Measurements from patent US20200390853A1, “ACTIVE PEPTIDE FOR ENHANCING THE PHAGOCYTIC FUNCTIONS OF RETINAL PIGMENT EPITHELIUM AND A USE THEREOF” (Beijing Tongren Hospital, Capital Medical University, priority 2019, published 2020).

B1: Gas6-LamininG active peptide: sequence of EGF-LamininG functional domain of Gas6 protein, amino acid sequence SEQ ID NO.1 (protein)
chain: DQCTPNPCDRKGTQACQDLMGNFFCLCKAGWGGRLCDKDVNECSQENGGCLQICHNKPGSFHCSCHSGFELSSDGRTCQDIDECADSEACGEARCKNLPGSYSCLCDEGFAYSSQEKACRDVDECLQGRCEQVCVNSPGSYTCHCDGRGGLKLSQDMDTCEDILPCVPFSVAKSVKSLYLGRMFSGTPVIRLRFKRLQPTRLVAEFDFRTFDPEGILLFAGGHQDSTWIVLALRAGRLELQLRYNGVGRVTSSGPVINHGMWQTISVEELARNLVIKVNRDAVMKIAVAGDLFQPERGLYHLNLTVGGIPFHEKDLVQPINPRLDGCMRSWNWLNGEDTTIQETVKVNTRMQCFSVTERGSFYPGSGFAFYSLDYMRTPLDVGTESTWEVEVVAHIRPAADTGVLFALWAPDLRAVPLSVALVDYHSTKKLKKQLVVLAVEHTALALMEIKVCDGQEHVVTVSLRDGEATLEVDGTRGQSEVSAAQLQERLAVLERHLRSPVLTFAGGLPDVPVTSAPVTAFYRGCMTLEVNRRLLDLDEAAYKHSDITAHSCPPVEPAAA
modifications: the amino acid sequence of the active peptide
B2: Gas6 full-length proteins: Gas6 full-length proteins used as comparator (protein, UniProt Q14393 1-678, looked up)
chain: MAPSLSPGPAALRRAPQLLLLLLAAECALAALLPAREATQFLRPRQRRAFQVFEEAKQGHLERECVEELCSREEAREVFENDPETDYFYPRYLDCINKYGSPYTKNSGFATCVQNLPDQCTPNPCDRKGTQACQDLMGNFFCLCKAGWGGRLCDKDVNECSQENGGCLQICHNKPGSFHCSCHSGFELSSDGRTCQDIDECADSEACGEARCKNLPGSYSCLCDEGFAYSSQEKACRDVDECLQGRCEQVCVNSPGSYTCHCDGRGGLKLSQDMDTCEDILPCVPFSVAKSVKSLYLGRMFSGTPVIRLRFKRLQPTRLVAEFDFRTFDPEGILLFAGGHQDSTWIVLALRAGRLELQLRYNGVGRVTSSGPVINHGMWQTISVEELARNLVIKVNRDAVMKIAVAGDLFQPERGLYHLNLTVGGIPFHEKDLVQPINPRLDGCMRSWNWLNGEDTTIQETVKVNTRMQCFSVTERGSFYPGSGFAFYSLDYMRTPLDVGTESTWEVEVVAHIRPAADTGVLFALWAPDLRAVPLSVALVDYHSTKKLKKQLVVLAVEHTALALMEIKVCDGQEHVVTVSLRDGEATLEVDGTRGQSEVSAAQLQERLAVLERHLRSPVLTFAGGLPDVPVTSAPVTAFYRGCMTLEVNRRLLDLDEAAYKHSDITAHSCPPVEPAAA
modifications: full-length
notes: Gas6 full-length proteins used as comparator

Assays:
RPE cells = assay: Model of in vitro RPE phagocytosis (disc membrane uptake, laser confocal); assay type: cell-based; conditions: after 3 h of RPE phagocytosis, p<0.05 between groups
[1] = test system: AKT phosphorylation level downstream of MerTK; assay: AKT phosphorylation level in RPE cells cultivated in vitro (Western blotting, pAKT/GAPDH); assay type: cell-based; conditions: 200 ng/ml and 800 ng/ml, 30 minutes, vs blank control
Method: Segmented cloning was conducted according to the functional domain of Gas6 protein, wherein the sequence of EGF-LamininG functional domain is the primary active peptide sequence (G3, named as Gas6-LamininG active peptide).

Molecule | contents of disc membranes taken up (RPE phagocytosis capacity) (RPE cells) | Akt phosphorylation level (relative gray value of pAKT/GAPDH) [1]
B1 | an effect of enhancing the phagocytic functions of retinal pigment epithelium | significantly upregulating Akt phosphorylation levels
B2 |  | significantly upregulating Akt phosphorylation levels
